Reference: US9803013B2, “Biological materials and uses thereof” (BioInvent International AB, priority 2005, dated 2017)

Experiments:
[1] = system: carcinoma cell lines initially tested; test: IgG binding to tumour cell lines, flow cytometry; design: species or system human; conditions: all carcinoma cell lines initially tested
Excerpt: FIG. 6—Binding of B1, B11, C11 IgG, to tumour cell lines of different origin. The antigen distribution of antigens targeted by the B1, B11, and C11 antibodies on different carcinoma cell lines was investigated by flow-cytometry.
(§1) The antigen distribution of human antibody targeted antigens, mainly for B11, on different carcinoma cell lines was investigated. Cells (MCF-7 and MDA MB 435S breast carcinoma, JAR and JEG-3 chorio-carcinoma, A549 lung carcinoma, TCC-SUP urinary bladder carcinoma, MDA MB 435 melanoma, HPAC, PANC-1 and BxPC-3 pancreatic carcinoma, PC-3 and DU145 prostate carcinoma, LS174 T, CaCo2, and Lovo colorectal carcinoma, and THP-1 monocytic leukaemia cells), were washed in PBS, and resuspended at 4×10^6 cells/ml in Complete Medium (200,000 cells/50 […] sample). […] Cells were incubated with either of the antibodies for 1 hour on ice, washed by resuspension in PBS/BSA 0.5%, centrifuged at 1200 rpm for 5 min, and complete aspiration of the supernatants was undertaken. Cells were incubated with PE-conjugated Goat F(ab′)2 anti-Human IgG (Caltag Laboratories, Cat no: H10104), diluted 1/50 in PBS/BSA 0.5%, for 30 min, on ice. Following resuspension of in 300 μl PBS/BSA 0.5%, cells were analysed for IgG binding using a FACScan instrument.

[2] = system: Daudi B cell lymphoma xenografts; test: SCID/Daudi B cell lymphoma subcutaneous xenograft model; conditions: one day following tumor cell injection or established tumors
JAR = test: IgG binding to carcinoma cell line, flow cytometry MFI; design: species or system human; conditions: Chorio-carcinoma
Excerpt: as §1

CaCo2 = test: as above; design: species or system human; conditions: CaCo2, Colon carcinoma
Excerpt: as §1

PC-3 = test: as above; design: species or system human
Excerpt: as §1

MDA MB 435S = test: as above; design: species or system human; conditions: Mammary carcinoma
Excerpt: as §1

JEG-3 = test: as above; design: species or system human; conditions: JEG-3, Chorio-carcinoma
Excerpt: as §1

A549 = test: as above; design: species or system human; conditions: A549, Lung carcinoma
Excerpt: as §1

TCC-SUP = test: as above; design: species or system human; conditions: Urinary bladder carcinoma
Excerpt: as §1

PANC-1 = test: as above; design: species or system human; conditions: PANC-1, Pancreatic carcinoma
Excerpt: as §1

Lovo = test: as above; design: species or system human; conditions: Colon carcinoma
Excerpt: as §1

DU145 = test: as above; design: species or system human; conditions: DU145, Prostate carcinoma
Excerpt: as §1

BxPC-3 = test: as above; design: species or system human; conditions: BxPC-3, Pancreatic carcinoma
Excerpt: as §1

ICAM-3 = biological target: T1, ICAM-3 (Homo sapiens, UniProt P32942); test: Binding to recombinant ICAM family protein
T1 sequence (P32942 30-547): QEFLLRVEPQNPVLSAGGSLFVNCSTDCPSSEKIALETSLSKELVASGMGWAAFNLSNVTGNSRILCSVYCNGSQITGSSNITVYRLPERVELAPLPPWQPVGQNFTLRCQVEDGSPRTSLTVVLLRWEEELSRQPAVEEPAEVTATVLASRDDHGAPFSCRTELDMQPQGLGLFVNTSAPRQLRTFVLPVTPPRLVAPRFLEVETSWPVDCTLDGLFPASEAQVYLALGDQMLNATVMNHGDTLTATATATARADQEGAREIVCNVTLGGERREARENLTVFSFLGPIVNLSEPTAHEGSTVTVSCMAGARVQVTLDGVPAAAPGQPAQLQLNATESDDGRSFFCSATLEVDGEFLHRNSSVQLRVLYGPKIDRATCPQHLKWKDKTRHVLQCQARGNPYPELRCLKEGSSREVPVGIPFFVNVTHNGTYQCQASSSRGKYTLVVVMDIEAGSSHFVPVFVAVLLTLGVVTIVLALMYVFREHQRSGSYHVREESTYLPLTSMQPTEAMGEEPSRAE

MDA MB 435 cells = test: Apoptosis induction in carcinoma cells (cross-linked IgG, 16-24 hours, Annexin V/PI); assay type: cell-based, human; conditions: MDA MB 435, cross-linked IgG
Description: (§2) The prostate carcinoma cell line PC-3 was grown in Complete Growth Medium (RPMI 1640, supplemented with 10% FCS, 10 mM HEPES, and 2 mM L-Glutamine) to 80% confluency in a 6 well plate. The prostate carcinoma cell line DU145 was grown in MEM with Earl's salts, supplemented with 10% FCS, 1 mM sodium pyruvate, and 1 mM non-essential amino acids and the derivate of a melanoma cell line MDA MB 435 was grown in DMEM supplemented with 10% FCS.
(§3) For apoptosis assays cells were washed in PBS and serially diluted B11 IgG1 (or B1 IgG1, Trastuzumab or negative antibody control for controls) was added to individual wells and binding was allowed during a 1-2 h incubation at 4° C. The cells were washed and Complete Growth Medium was added, containing cross-linking antibody, Fab′2 Goat anti-Human Fab′2, at 10 μg/ml. Cells were incubated in a humidified atmosphere, with 5% CO2 at 37° C., for 16-24 hours. Cells were collected by trypsination and stained with Alexa Fluor 488-Annexin V (AF488-AV) and propidium iodide (PI), according to manufacturer's instructions. The percentage apoptotic cells was determined by the formula: % apoptotic cells=100−% AF488−AV/PI−/−.
(§4) Cells were seeded in 6 well plates with Complete Growth Medium three days before the onset of the experiment.

DU145 cells = test: as above; assay type: cell-based, human
Description: as §2, §3, §4

[3] = Limited safety studies in rat, rabbit and monkey; assay type: in vivo

B1: C11: fully human IgG1 antibody specific for surface IgM; VH and VL sequences of FIG. 11 (SEQ ID NOs. 10 and 12) (antibody, listed as Homo sapiens, V domains shown)
VH: EVQLLESGGGLVQPGGSLRLSCAASGFTFGSYEMNWVRQAPGKGLEWVSVIYSGGSTYYADSVEGRFTISRDNSKNTLYLQMNSLRAEDTAVYYCARDTNPYYYYGMDVWGQGTLVTVSS
VL: QSVLTQPPSASGTPGQRVTISCSGSSSNIGNNAVNWYQQLPGTAPKLLIYRNNQRPSGVPDRFSGSKSGTSASLAISGLRSEDEADYYCQSYDSSLNGQVFGGGTKLTVLG
[1]
  binding: lack of binding

B2: B11: fully human IgG1 antibody specific for ICAM-1; VH and VL sequences of FIG. 10 (SEQ ID NOs. 6 and 8) (antibody, listed as Homo sapiens, V domains shown)
VH: EVQLLESGGGLVQPGGSLRLSCAASGFTFSNAWMSWVRQAPGKGLEWVAFIWYDGSNKYYADSVKGRFTISRDNSKNTLYLQMNSLRAEDTAVYYCARYSGWYFDYWGQGTLVTVSS
VL: QSVLTQPPSASGTPGQRVTISCTGSSSNIGAGYDVHWYQQLPGTAPKLLIYDNNNRPSGVPDRFSGSKSGTSASLAISGLRSEDEADYYCQSYDSSLSAWLFGGGTKLTVLG
[2]
  survival: prolonged survival
  tumor growth: significantly prevented tumor growth
JAR
  MFI: 2000
CaCo2
  MFI: 800
PC-3; PC-3, Prostate carcinoma
  MFI: 1500
PC-3; PC-3 prostate carcinoma cells
  binding: strong binding
MDA MB 435S
  MFI: 800
JEG-3
  MFI: 1600
A549
  MFI: 800
TCC-SUP
  MFI: 3200
PANC-1
  MFI: 3800
Lovo
  MFI: 1600
DU145
  MFI: 2200
BxPC-3
  MFI: 2000
ICAM-3
  binding to recombinant protein: not to ICAM-2 or ICAM-3
MDA MB 435 cells
  Apoptosis Induction: induce apoptosis
DU145 cells
  Apoptosis Induction: induce apoptosis
[3]
  toxicity: no compound-related off-target toxicity
